# Paper PMC7714896 (Signal Transduction and Targeted Therapy, 2020)
# B1: recombinant human CD147 extracellular fragment (His-CD147) (domain or fragment)
# chain: EPGTVFTTVEDLGSKILLTCSLNDSATEVTGHRWLKGGVVLKEDALPGQKTEFKVDSDDQWGEYSCVFLPEPMGTANIQLHGPPRVKAVKSSEHINEGETAMLVCKSESVPPVTDWAWYKITDSEDKALMNGSESRFFVSSSQGRSELHIENLNMEADPGQYRCNGTSSKGSDQAIITLRVRSHLAAL
# Molecular target: T1, receptor-binding domain (RBD) of SARS-CoV-2 spike protein (SARS-CoV-2, UniProt P0DTC2)
# T1 construct: source: bought: GenScript
# Test: SPR; BIAcore 3000; […], flow 15 μl/min, […]
# Settings: both partners purified
binder,measurement,value
B1,Kd,185 nM
